Data published in US20190127434.

Tested on: K6UbKMRC011

USP1 (ubiquitin-specific protease 1)
cleavage by USP1, SDS-PAGE analysis (10 mg/L enzyme, 37 C, 12 hours): most of the refolded K6UbKMRC011 was cleaved by USP1 and separated into K6Ub and KMRC011
cleavage by ubiquitin cleavage enzymes, SDS-PAGE analysis (10 mg/L enzyme, 37 C, 12 hours): the refolded K6UbKMRC011 was cleaved by the ubiquitin cleavage enzymes shown in Table 2 and correctly separated into K6Ub and KMRC011
on-column cleavage, amino terminal sequence analysis of the released KMRC011: the USPI clearly cleaved the immediate side of K6Ub of K6UbKMRC011 so that only KMRC011 was separated and purified
